Test: soluble on expression in E. coli; label from the status in PepcDB or PDB records
In the case of “MLPCRANCFTLEISLMHINIAWQDVDTVLLDMDGTLLDLAFDNYFWQKLVPETWGAKNGVTPQEAMEYMRQQYHDVQHTLNWYCLDYWSEQLGLDICAMTTEMGPRAVLREDTIPFLEALKASGKQRILLTNAHPHNLAVKLEHTGLDAHLDLLLSTHTFGYPKEDQRLWHAVAEATGLKAERTLFIDDSEAILDAAAQFGIRYCLGVTNPDSGIAEKQYQRHPSLNDYRRLIPSLM”, the “soluble on expression in E. coli” value is reported as “not soluble”.
For “MAMVSGRRSTLNPDAPLFIPAAVRQVEDFSPEWWQLVTTSTWYPDYWISQQQQGADGFYDNGENENGGGHIDVADLLPESFDFDDMEDFFDTDAAEFDQGFDGRMYYQAPSEFGFGKNGEMVKKSSGNRSPRSIVEPAKYAEKPAKWGNQRVAAAPRNIHQPR”, the “soluble on expression in E. coli” value was “soluble”.
For “MGSDKIHHHHHHMTNTIPNWIKLNNEIMIQKDGKYQFEKDKEAVHSYFVDYINQNTVFFHDLKEKLDYLIKNDYYEEEFLSKYTFEQIKSIYKIAYSYKFRFPSFMSAFKFYNDYALKTNDKTKILERYEDRVSIVALYCADGDYEKAVEEVHTMMKQEYQPATPTFLNAGRKRRGEMVSCFLLEVGDSLNDISRAIDISMQLSKLGGGVALNLNKLRAKGEAIKDVENATKGVVGVMKLLDNAFRYADQMG”, the “soluble on expression in E. coli” value was “not soluble”.
For “MSKKIVLALGGNALGDDLAGQMKAVKITSQAIVDLIAQGHEVIVTHGNGPQVGMINQAFEAAAKTEAHSPMLPMSVCVALSQGYIGYDLQNALREELLSRGINKPVATLVTQVEVDANDPAFLNPTKPIGSFFTEQEAEQLTKQGYTLKEDAGRGYRRVVASPKPVDIIEKETVKALVDAGQVVITVGGGGIPVIREGNHLRGASAVIDKDWASARLAEMIDADMLIILTAVEKVAINFGKENEQWLDRLSLSDAERFIEEGHFAKGSMLPKVEAAASFARSRAGREALITVLSKAKEGIEGKTGTVICQ”, the “soluble on expression in E. coli” value was “not soluble”.
With “EVKDYMSQPVVLRENTTVYDAICTIFLEDVSTLFIINEDNDFVGVCSRKDLLRASMIGADIHTVPISVNMTRMPNVTYLEESELVIYAADRMIEKEIDSIPIVRKKDNQKYEVIGRISKTTIAKLLVALYKE” the “soluble on expression in E. coli” value was “not soluble”.
In the case of “MDIFYKKIKANVTPEVLAQLHSKKIILESTNQQQTKGRYSVVIFDIYGTLTLDNDVLSVSTLKESYQITERPYHYLTTKINEDYHNIQDEQLKSLPFISGYVGTCSFDLVRHEFPKLQSIQLEDHKQHDVRLYMVEQVYVFDHYKDELYIIATNQFSNSTKSDLENRVIKSIEDLTKIQPFMPTQDFDFKTKEIQSNISEERFIEMIQYFKEKITEGDMFQVVPSRIYKYAHHASQHLNQLSFQLYQNLKRQNPSPYMYYLNIDQPYIVGSSPESFVSVKDQIVTTNPIAGTIQRGETTQIDNENMKQLLNDPKECSEHRMLVDLGRNDIHRVSKIGTSKITKLMVIEKYEHVMHIVSEVTGKINQNLSPMTVIANLLPTGTVSGAPKLRAIERIYEQYPHKRGVYSGGVGYINCNHNLDFALAIRTMMIDEQYINVEAGCGVVYDSIPEKELNETKLKAKSLLEVSP”, the “soluble on expression in E. coli” value is reported as “not soluble”.
In the case of “MGSDKIHHHHHHVSKPLTGIHILVTRPSHQAGGLAGKIRAAGGEPCLFPVLEIQDISDPRPLLELIERLDEFYLAIFVSPNAVNKAMSVICAKRALPSDLKIATVGQGTARTLRRFGVSGVIVPAVRFDSEALLDMAELDRINVAGKRIIIFRGDNGRELLGETLRKRGASVEYAECYRRIRPEAEIGPLLAAWTRGEMNGVTVTSSEGLRNLWEMVGDSGRTWLENTPLFVSHERIAGVARKLGFNRVIVTAAGDDGLVAGLQDYFSGHMG”, the “soluble on expression in E. coli” value is reported as “not soluble”.
With “MGSDKIHHHHHHMEILSLGEKIKARRKELNMTLKDLAGDRITPGQISLVESGKSNPSMDLLEYLAGALNTSVEYLMESEETQAEKICVYYENTAEAYMLNDELMEAEQYLEKAMYYAENYKISYRKARTLYLYGCINMNKNELGVAQQFFLSSNVLFIKLNHYEDIINTFINLGKITLNLKAYNSSCSYFEQAERVSRDNDIGNDFLIGEIYYYMSLVYFKMNNSNKTIKYCLMAKEKFAELENKKEYARTLLILSKEYSKSGDVDNAIKYSKKALKAFKENDNMFAVADIENELGKLFYEFENIEESFIHLNKAKEIRKKTKGHEFIETLCNICENYIKLKDTENSQKVLNEIKENIDGNNVFDILKYYMLKYRISILNRSLKEAENILLRALQYAENMELEKEAAEFSVIIGKYYIDNGDDVEAAKYLNSGIEKFKKIGVLKDL” the “soluble on expression in E. coli” value was “not soluble”.
With “MMGEPARLRRLTAEEYLREEATSPVKRELVEGVPYAMAGAGRAHNLIVTNLVLLLGPLARRKGCRLYVADMKLKVGEATFYYPDLMAVCAPPPESPLYEEAPCLVVEVLSPATEGVDRREKLWRYLSLPSLEGYLLVSARERRVELYRKEGDILHQVAEEGEVPLPCLEGSLPVAEVYAGVELEGQEA” the “soluble on expression in E. coli” value was “soluble”.
For “LGLERDVSRAVELLERLQRSGELPPQKLQALQRVLQSRFCSAIREVYEQLYDTLDIT”, the “soluble on expression in E. coli” value was “soluble”.
In the case of “MRSRPTEGNLLVSIGIPFLNPGPYLDLAVRSVFAQTYLNWELILVDDGSTDGSYERAVAIQDPRVRVLRDGQNKGLPARLNEIVRLAKGELVARMDADDAMHPLRLEKQVGFLQANPELDGVTTGAYLIDAEDRPIALLPGRQPSAQEVLARGGFLHPSLLARKSWFEAHPYSLDYPRAEDRELFVRTFKTSRLHVLSEPLYFYRWFGVPRGKTLRIGYRSERKVMWKYGPNLVGWGPSLRLIALSFGKELLTWFLEWTHLEKGFQTRRAFQPLLEMDQREALRTLKVIRETCVPGWDLEHHHHHH”, the “soluble on expression in E. coli” value is reported as “not soluble”.
With “GAHMVTSNVVLVSGEGERFTVDKKIAERSLLLKNYLNDMGDDDDEDDDEIVMPVPNVRSSVLQKVIEWAEHHRDSNFPDEDDDDSRKSAPVDSWDREFLKVDQEMLYEIILAANYLNIKPLLDAGCKVVAEMIRGRSPEEIRRTFNIVNDFTPEEEAAIRRENEWAEDR” the “soluble on expression in E. coli” value was “soluble”.
For “MAHHHHHHMKFTISTSIEDVLFKGGFRVKEMRLNDFLTVIFGGRSILRANRSVLLRDFFSDPTRYIHDAGVLNEIQATGAYARMEEAVRDEIIFEEDRSKLRDKGVINLLGWSEAAANVKTTVHNNNKNSLDAALEEARNPTTTSTPIYLEGCYESVYNAKWHHLVEVPGGEGTGMDVEEGEPPQS”, the “soluble on expression in E. coli” value was “not soluble”.
In the case of “MMKTRGFELITDYTDENLLPKRETAHAAGYDLKVAERTEISAGAIVLVPTGVKAYMQVGEVLYLFDRSSNPRKKGLVLINSVGVIDGDYYNNPNNEGHIFAQMKNMTDQTVVLEAGERVVQGVFMPFLLIDGDKATGTRTGGFGSTGG”, the “soluble on expression in E. coli” value is reported as “soluble”.
With “GMNPFQNSFGGHIPQDVAGKQGENVIFIVYNLTDSPDTVDKVKDVCANFSAMIRSMRNRFPDMQFSCTMGFGADAWTRLFPDKGKPKELSTFSEIKGEKYTAVSTPGDLLFHIRAKQMGLCFEFASILDEKLKGAVVSVDETHGFRYMDGKAIIGFVDGTENPAVDENPYHFAVIGEEDADFAGGSYVFVQKYIHDMVAWNALPVEQQEKVIGRHKFNDVELSDEEKPGNAHNAVTNIGDDLKIVRANMPFANTSKGEYGTYFIGYASTFSTTRRMLENMFIGSPAGNTDRLLDFSTAITGTLFFVPSYDLLGELGE” the “soluble on expression in E. coli” value was “soluble”.
For “MNCRLGCGACCIAPSISSVIPGMPNGKAAGERCVQLSDDNLCLIFGSPERPAVCCDFEASLDVCGHSNEEALWLITNLESQTSLEHHHHHH”, the “soluble on expression in E. coli” value was “not soluble”.
In the case of “MFGFPTATLLDCHGRYAQNVAFFNVMTEAHHKYDHSEATGSSSWDIQNSFRREKLEQKSPDSKTLQEDSPGVRQRVYECQECGKSFRQKGSLTLHERIHTGQKPFECTHCGKSFRAKGNLVTHQRIHTGEKPYQCKECGKSFSQRGSLAVHERLHTGQKPYECAICQRSFRNQSNLAVHRRVHSGEKPYRCDQCGKAFSQKGSLIVHIRVHTGLKPYACTQCRKSFHTRGNCILHGKIHTGETPYLCGQCGKSFTQRGSLAVHQRSCSQRLTL”, the “soluble on expression in E. coli” value is reported as “soluble”.
For “MRKVLVFLKNSKKAFETFKRVERVLKDLNLSYKKFINRKELFKVLKPKDYELFLVIGGDGTFLSAARIASRFGVPLVGVNEGRFGFLTEIKKEEIKKVLPLVLEGRAKLQERLMIDVYLRSRNRLRYLGNYLNDAVISKSSIARIIRTKVFINGEEVLEVFGDGVILSTPTGSTAYALSAGGPIVYPESQNLLFVPICPHTLSNRPLVLPSKFEVKFKVVSENMEAFLTLDGQEGFHLKKGDEVIVKRSRYVCRMYSHPRKSFFGILKEKLRWG”, the “soluble on expression in E. coli” value was “soluble”.
For “MDNHDDKSKSDRFCDINNNMTTQFDRLSINSDASLVITSSRLAMQGADETSDWTPNKYSWFKLVTPNPVETRVVQQKAQMKGLKIHKMVHNFIPSRKQGYLGYYNFDVKSYEESEKARNLFPTDFVDAFCCQHLLGKNEQEFVFHAVNENDLKILCCIATYCKETKLDAPLDPMQHLNNLNLFYEAINNERAFIIMKDFMSDNGMKYLCRLKKDITDIRDRRNNN”, the “soluble on expression in E. coli” value was “not soluble”.
For “MEKYEELFARIKEKAKLIDEKIFELIPEKDPRVLYEAARHYPLAGGKRVRPFVVLTSTEAVGGDPLRAIYPAVAIELIHNYSLVHDDIMDMDETRRGKPTVHRIWGVNMAILAGDLLFSKAFEAVARAEIPPEKKARVLEVIVKASNELCEGQARDLEFEKKSTVTIEEYMEMISGKTGALFEASAKVGGIIGTDNEEYIKALSSWGRNVGIAFQIWDDVLDLIADEKKLGKPVGSDIRKGKKTLIVAHFFENADEKDKQRFLKIFGKYAGDVKGRGIIEEDIKSDVMEAIDLLKKYGSIDYAAEIAKDMIKKANEALRILPKSKARMDLELLAKFIVEREY”, the “soluble on expression in E. coli” value was “soluble”.
For “GMPIDTPTDASPADGSASDTVFFGIMSGLELGTFVPGQRLVETDLVAHFGVGRNSVREALQRLAAEGIVDLQRHRGAVIRRLSLQETLDVLDVAERMTGLLARAATRGSGNQPQVQALRASVQALVAAEKAQDGETFSNARRHFYRTLLEMGDNRELRRLFPTIHMPIVHAQHRLASLRQMRLDDYRRIATAVLAGEPDAAEAAGAAHVKNVRGAILDRQPA”, the “soluble on expression in E. coli” value was “soluble”.
With “GQGVSRSGALDLGALRSANRTVGNPSDMACVESVLGGLSFSCHGSAVIAITGAHTPVTITSASGLQWQASNYQPIELETGDRVSLGSPKAGLRSYLAIRGGFDVTPVLGSLSTDTLAQLGPEALATGDRLGFTAPVNGTSVSLNEAPAFELPTTANIVTLDVVMGPRTDWFTENAIQRLSSQLWRVTPQSNRVGIRLAGDTPLERSNHQELPSEGTSVGAIQVPASGQPVLFLADHPLTGGYPVIASVASHHLDLAGQIPVNAQIRFNPLGAFEEMQPSTEASFSTADAKNNS” the “soluble on expression in E. coli” value was “not soluble”.
In the case of “MSLVMSDTLNSLQLGERPEGRTLLTASWVVGHKDGSHRLLKNGEVVFENGEILFVGHGFPGEVARRIDFGNALVSPGLIDLDALSDLDTTILGIDHHPGWAKGRVWPRSYVEAGPYEMYSAEELAFQKRFAFGQLLLNGITTAAPIASLFYRAWGETVAEFEAAADAAGELGLRVYLSPAFRSGGMVLEEPGRMFPVFDEERGFQGLKEAIAFIEKQSGRHGDLVRGMLAPDRVETSTLGLIERTDAAARELGCKFRLHMAQGVMEVDTVRKLHGSTAPVWLAKAGLLSERLIAPHATNATEEDLALYAENGVSIVHCPLVSSRGGSTLSSFSSCRKRGINIAMGTDTAPADMFMNLLVGLITCRINDGAPDQIRCADLFDAATLGGARALGRSDLGHLSSGARADIAVFDLDDAVMAPSVDPITTLVTGGSGKVTRAVFVDGRLSMRERQVAHIDMRRAREQAQAQFDRLIAKYPERSWANPPVSEIFPPSYQVEVAQHGEGHHHHHH”, the “soluble on expression in E. coli” value is reported as “soluble”.

From the DeepSol protein solubility set
